US20200262877A1, “ION CHANNEL-BINDING PEPTIDES AND METHODS OF USE THEREOF” (priority 2017, published 2020)

Tests used:
[1] = target: Nav1.5 (Homo sapiens, UniProt Q14524); experiment: in vitro; settings: 100% = no change; for Activity of Nav1.5 with peptide, expressed as a percentage of the reference compound: peptide at 0.2 μM; for Activity of Nav1.5 with peptide (percentage of the reference compound): peptide at 20 μM
Summary of the method: (§1)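 Transfected HEK293 or CHO cells were exposed for at least 5 min to peptides at 200 nM and 20 μM final, tested in duplicate, in HEPES-buffered physiological saline. Activation was taken as peptide-plus-agonist current over control current ×100, and inhibition as 1 minus that ratio ×100. Each channel's control was its own reference compound.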

[2] = target: hERG (Homo sapiens, UniProt Q12809); experiment: in vitro; settings: 100% = no change, <100% = inhibition
Summary of the method: as §1

[3] = system: GABA; experiment: Ion channel panel (IonWorks Barracuda): GABA; type: cell-based; settings: 100% = no change, <100% = inhibition
Summary of the method: as §1

[4] = target: T1, α4β2 (Homo sapiens, UniProt P17787+P43681); experiment: Ion channel panel (IonWorks Barracuda): α4β2; type: cell-based; settings: 100% = no change, <100% = inhibition
T1 construct: host or cells: HEK293 or CHO
Summary of the method: as §1

[5] = target: T2, Cav2.2 (Homo sapiens, UniProt Q00975); experiment: cell-based; settings: 100% = no change, <100% = inhibition
T2 construct: host or cells: HEK293 or CHO
Summary of the method: as §1

[6] = target: T3, Cav2.1 (Homo sapiens, UniProt O00555); experiment: cell-based; settings: 100% = no change, <100% = inhibition
T3 construct: host or cells: HEK293 or CHO
Summary of the method: as §1

[7] = target: T4, Kv2.1 (Homo sapiens, UniProt Q14721); experiment: cell-based; settings: 100% = no change, <100% = inhibition
T4 construct: host or cells: HEK293 or CHO
Summary of the method: as §1

[8] = target: T5, TRPV1 (Homo sapiens, UniProt Q8NER1); experiment: Ion channel panel (IonWorks Barracuda): TRPV1; type: cell-based; settings: 100% = no change, <100% = inhibition
T5 construct: host or cells: HEK293 or CHO
Summary of the method: as §1

[9] = target: T6, NR2B (Homo sapiens, UniProt Q13224); experiment: Ion channel panel (IonWorks Barracuda): NR2B; type: cell-based; settings: 100% = no change, <100% = inhibition
T6 construct: host or cells: HEK293 or CHO
Summary of the method: as §1

[10] = target: T7, Kir2.1 (Homo sapiens, UniProt P63252); experiment: Ion channel panel (IonWorks Barracuda): Kir2.1; type: cell-based; settings: 100% = no change, <100% = inhibition
T7 construct: host or cells: HEK293 or CHO
Summary of the method: as §1

[11] = target: T8, Kv1.1 (Homo sapiens, UniProt Q09470); experiment: cell-based; type: cell-based; settings: 100% = no change, <100% = inhibition
T8 construct: host or cells: HEK293 or CHO
Summary of the method: as §1

[12] = target: T9, Kv1.3 (Homo sapiens, UniProt P22001); experiment: cell-based; type: cell-based; settings: 100% = no change, <100% = inhibition
T9 construct: host or cells: HEK293 or CHO
Summary of the method: as §1

[13] = target: T10, Kv1.2 (Homo sapiens, UniProt P16389); experiment: cell-based; type: cell-based; settings: 100% = no change, <100% = inhibition
T10 construct: host or cells: HEK293 or CHO
Summary of the method: as §1

[14] = target: T11, TRPA1 (Homo sapiens, UniProt O75762); experiment: Ion channel panel (IonWorks Barracuda): TRPA1; type: cell-based; settings: 100% = no change, <100% = inhibition
T11 construct: host or cells: HEK293 or CHO
Summary of the method: as §1

[15] = target: T12, NR2A (Homo sapiens, UniProt Q12879); experiment: Ion channel panel (IonWorks Barracuda): NR2A; type: cell-based; settings: 100% = no change, <100% = inhibition
T12 construct: host or cells: HEK293 or CHO
Summary of the method: as §1

[16] = target: T13, 5HT3a (Homo sapiens, UniProt P46098); experiment: Ion channel panel (IonWorks Barracuda): 5HT3a; type: cell-based
T13 construct: host or cells: HEK293 or CHO
T13 sequence (P46098 whole entry, looked up): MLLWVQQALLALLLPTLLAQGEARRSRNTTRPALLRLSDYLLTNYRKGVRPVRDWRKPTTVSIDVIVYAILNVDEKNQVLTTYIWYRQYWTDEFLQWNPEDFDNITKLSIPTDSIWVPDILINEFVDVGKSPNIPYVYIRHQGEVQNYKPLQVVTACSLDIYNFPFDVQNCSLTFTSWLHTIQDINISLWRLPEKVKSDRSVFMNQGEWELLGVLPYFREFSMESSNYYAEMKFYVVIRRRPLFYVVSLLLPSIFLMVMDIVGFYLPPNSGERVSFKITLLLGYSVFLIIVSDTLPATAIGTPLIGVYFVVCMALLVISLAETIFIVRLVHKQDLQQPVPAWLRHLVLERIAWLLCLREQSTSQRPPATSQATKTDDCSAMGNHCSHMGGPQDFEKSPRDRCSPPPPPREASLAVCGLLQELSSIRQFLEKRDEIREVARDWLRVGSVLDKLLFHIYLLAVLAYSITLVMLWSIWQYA
Summary of the method: as §1

[17] = target: T14, Nav1.7 (Homo sapiens, UniProt Q15858); experiment: cell-based; type: cell-based; settings: 100% = no change; for Activity of Nav1.7 with peptide, expressed as a percentage of the reference compound: peptide at 0.2 μM; for Activity of Nav1.7 with peptide (percentage of the reference compound): peptide at 20 μM
T14 construct: host or cells: HEK293 or CHO

[18] = target: T15, α3β4 (Homo sapiens, UniProt P30926+P32297); experiment: Ion channel panel (IonWorks Barracuda): α3β4; type: cell-based; settings: 100% = no change, <100% = inhibition
T15 construct: host or cells: HEK293 or CHO
Summary of the method: as §1

[19] = first of two Nav1.5 columns (probably TP1)
[20] = second of two Nav1.5 columns (probably TP2)
[21] = first of two Nav1.7 columns (probably TP1)
[22] = second of two Nav1.7 columns (probably TP2)

Sequence of Nav1.5 (Q14524 whole entry): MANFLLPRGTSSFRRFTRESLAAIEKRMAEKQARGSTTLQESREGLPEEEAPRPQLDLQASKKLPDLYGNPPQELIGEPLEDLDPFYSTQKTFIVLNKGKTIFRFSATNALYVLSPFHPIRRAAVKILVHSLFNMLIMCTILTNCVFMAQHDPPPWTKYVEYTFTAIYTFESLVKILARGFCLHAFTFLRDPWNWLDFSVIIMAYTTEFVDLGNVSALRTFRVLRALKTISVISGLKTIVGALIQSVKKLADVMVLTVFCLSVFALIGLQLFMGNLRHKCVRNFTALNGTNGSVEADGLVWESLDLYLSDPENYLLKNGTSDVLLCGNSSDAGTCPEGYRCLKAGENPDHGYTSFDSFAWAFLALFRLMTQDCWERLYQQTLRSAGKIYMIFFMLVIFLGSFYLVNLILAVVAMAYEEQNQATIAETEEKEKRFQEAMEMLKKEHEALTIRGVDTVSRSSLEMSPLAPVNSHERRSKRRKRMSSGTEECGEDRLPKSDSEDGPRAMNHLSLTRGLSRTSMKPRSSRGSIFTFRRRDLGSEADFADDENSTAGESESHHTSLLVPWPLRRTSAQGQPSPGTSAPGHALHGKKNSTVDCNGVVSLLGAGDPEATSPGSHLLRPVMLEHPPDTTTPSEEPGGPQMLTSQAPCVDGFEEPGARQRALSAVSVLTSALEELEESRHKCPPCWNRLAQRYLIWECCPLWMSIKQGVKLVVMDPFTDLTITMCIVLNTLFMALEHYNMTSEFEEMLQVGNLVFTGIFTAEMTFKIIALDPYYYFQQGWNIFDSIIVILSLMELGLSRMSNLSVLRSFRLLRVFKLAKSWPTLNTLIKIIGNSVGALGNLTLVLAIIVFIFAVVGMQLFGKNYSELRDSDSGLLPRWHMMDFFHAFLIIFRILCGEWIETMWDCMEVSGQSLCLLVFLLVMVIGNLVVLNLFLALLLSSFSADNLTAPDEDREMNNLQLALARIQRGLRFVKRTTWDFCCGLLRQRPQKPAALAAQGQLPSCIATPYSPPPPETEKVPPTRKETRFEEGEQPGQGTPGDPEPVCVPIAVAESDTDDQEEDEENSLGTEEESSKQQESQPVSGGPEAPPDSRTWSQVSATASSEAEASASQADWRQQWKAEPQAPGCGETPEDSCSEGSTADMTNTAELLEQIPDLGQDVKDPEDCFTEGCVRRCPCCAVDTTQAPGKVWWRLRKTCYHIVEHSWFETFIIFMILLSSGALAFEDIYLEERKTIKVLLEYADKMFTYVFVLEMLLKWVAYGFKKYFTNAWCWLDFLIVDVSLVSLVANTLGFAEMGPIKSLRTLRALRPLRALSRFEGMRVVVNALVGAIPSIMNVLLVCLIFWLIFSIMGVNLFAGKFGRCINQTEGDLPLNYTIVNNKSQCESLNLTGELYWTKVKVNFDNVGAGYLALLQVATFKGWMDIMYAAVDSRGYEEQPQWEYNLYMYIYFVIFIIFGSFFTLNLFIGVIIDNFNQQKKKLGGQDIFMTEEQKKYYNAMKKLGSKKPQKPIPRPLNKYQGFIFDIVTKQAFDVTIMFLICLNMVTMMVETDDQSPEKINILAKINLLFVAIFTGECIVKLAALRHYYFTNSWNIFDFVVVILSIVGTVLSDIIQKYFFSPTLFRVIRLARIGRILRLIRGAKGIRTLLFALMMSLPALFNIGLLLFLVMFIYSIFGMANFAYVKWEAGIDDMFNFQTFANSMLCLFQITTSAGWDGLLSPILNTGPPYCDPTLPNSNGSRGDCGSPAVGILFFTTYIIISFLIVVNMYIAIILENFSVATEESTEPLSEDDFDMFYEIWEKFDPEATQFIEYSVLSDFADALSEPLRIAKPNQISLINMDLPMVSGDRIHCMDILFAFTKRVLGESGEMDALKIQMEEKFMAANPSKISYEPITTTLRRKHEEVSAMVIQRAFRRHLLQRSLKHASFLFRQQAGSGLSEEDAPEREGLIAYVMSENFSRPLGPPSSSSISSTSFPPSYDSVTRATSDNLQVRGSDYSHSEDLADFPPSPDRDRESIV
T14 sequence (Q15858 whole entry): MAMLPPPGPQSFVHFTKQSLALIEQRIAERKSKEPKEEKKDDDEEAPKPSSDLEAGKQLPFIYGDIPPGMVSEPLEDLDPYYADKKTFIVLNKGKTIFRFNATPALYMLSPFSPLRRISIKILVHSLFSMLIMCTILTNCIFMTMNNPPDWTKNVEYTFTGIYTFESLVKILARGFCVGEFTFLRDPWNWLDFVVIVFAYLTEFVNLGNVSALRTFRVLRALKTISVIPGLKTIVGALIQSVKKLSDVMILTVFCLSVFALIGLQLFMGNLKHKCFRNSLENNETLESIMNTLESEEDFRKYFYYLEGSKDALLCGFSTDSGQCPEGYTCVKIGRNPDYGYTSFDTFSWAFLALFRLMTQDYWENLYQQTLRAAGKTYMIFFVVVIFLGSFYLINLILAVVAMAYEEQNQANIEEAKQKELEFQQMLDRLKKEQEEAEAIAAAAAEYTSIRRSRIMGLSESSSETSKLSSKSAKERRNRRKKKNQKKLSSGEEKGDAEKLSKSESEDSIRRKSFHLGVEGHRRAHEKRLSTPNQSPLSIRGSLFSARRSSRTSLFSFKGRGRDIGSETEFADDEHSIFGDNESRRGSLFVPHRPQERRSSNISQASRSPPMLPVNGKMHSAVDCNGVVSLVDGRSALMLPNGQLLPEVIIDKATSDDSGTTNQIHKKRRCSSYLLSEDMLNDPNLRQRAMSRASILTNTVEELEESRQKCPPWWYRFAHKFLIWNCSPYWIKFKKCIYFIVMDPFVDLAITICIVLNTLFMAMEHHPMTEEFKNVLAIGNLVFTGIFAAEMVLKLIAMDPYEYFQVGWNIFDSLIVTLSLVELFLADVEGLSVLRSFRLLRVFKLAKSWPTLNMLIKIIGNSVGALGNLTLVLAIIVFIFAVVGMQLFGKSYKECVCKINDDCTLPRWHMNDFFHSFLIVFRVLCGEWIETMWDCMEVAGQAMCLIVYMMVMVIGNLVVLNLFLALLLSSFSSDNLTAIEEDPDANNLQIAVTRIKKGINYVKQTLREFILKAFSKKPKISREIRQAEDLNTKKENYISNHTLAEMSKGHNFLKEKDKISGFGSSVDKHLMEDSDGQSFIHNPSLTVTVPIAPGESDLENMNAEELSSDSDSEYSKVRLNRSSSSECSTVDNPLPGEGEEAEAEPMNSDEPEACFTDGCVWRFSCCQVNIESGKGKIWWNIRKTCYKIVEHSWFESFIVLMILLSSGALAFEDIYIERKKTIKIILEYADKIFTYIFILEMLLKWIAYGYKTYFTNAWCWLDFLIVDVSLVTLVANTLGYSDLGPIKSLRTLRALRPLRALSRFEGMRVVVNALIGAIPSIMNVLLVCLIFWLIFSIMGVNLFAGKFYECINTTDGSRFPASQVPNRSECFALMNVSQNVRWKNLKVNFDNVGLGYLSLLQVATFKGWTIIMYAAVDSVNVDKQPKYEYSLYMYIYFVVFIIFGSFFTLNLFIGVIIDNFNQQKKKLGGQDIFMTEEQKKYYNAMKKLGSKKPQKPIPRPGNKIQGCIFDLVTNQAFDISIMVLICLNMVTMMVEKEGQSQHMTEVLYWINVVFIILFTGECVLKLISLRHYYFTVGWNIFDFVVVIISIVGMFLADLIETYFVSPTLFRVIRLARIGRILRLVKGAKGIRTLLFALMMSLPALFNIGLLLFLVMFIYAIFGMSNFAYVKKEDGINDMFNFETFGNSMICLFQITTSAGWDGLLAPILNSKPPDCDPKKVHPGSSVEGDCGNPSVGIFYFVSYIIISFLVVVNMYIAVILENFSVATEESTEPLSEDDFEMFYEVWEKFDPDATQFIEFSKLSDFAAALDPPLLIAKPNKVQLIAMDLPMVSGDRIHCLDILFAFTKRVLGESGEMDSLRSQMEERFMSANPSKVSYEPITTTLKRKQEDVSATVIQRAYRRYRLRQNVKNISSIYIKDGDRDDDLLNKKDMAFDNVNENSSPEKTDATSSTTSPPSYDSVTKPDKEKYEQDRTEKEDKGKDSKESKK
T10 sequence (P16389 whole entry): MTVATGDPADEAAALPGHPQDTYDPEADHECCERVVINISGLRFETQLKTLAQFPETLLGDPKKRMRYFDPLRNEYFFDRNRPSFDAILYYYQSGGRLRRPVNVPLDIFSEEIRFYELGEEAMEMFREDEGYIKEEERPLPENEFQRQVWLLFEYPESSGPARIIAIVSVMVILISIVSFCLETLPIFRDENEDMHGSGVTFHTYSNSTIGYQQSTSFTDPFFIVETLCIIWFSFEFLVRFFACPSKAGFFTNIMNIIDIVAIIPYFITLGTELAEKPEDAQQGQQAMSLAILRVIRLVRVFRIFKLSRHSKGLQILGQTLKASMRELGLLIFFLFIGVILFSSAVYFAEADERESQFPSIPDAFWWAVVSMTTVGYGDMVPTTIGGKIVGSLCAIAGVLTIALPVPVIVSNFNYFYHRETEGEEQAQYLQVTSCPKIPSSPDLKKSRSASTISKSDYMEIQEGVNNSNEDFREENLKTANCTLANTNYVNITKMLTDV
T7 sequence (P63252 whole entry): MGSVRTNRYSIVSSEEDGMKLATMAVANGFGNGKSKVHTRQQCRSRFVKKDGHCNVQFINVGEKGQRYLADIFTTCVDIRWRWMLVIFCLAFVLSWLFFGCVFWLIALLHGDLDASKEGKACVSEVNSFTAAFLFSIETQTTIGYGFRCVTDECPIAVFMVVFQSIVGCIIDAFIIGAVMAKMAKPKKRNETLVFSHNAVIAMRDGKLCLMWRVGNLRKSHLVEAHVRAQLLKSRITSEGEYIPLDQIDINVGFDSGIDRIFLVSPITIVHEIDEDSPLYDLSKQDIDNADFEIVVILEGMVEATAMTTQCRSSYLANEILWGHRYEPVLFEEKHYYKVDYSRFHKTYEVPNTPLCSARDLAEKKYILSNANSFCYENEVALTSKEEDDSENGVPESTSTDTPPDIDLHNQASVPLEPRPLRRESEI

For “24 (GSSCAKPGEMCMRIKCCDGQCGCNRGTGRCFCK) [compound 24]”, the “Activity of Nav1.5 with peptide, expressed as a percentage of the reference compound” value [1, 19] was 94%, the “Activity of Nav1.5 with peptide, expressed as a percentage of the reference compound” value [1, 20] was 95% and the “Activity of Nav1.5 with peptide (percentage of the reference compound)” value [1, 19] was 99%. For the same substance, the “Activity of Nav1.5 with peptide (percentage of the reference compound)” value [1, 20] was 104%, the “Activity of hERG with peptide, expressed as a percentage of the reference compound” value ([2]; peptide at 0.2 μM) was 88% and the “Activity of hERG with peptide (percentage of the reference compound)” value ([2]; peptide at 20 μM) was 78%. The “Activity of GABA with peptide, expressed as a percentage of the reference compound” value ([3]; peptide at 0.2 μM) was 96%, the “Activity of GABA with peptide (percentage of the reference compound)” value ([3]; peptide at 20 μM) was 114% and the “Activity of a4b2 with peptide, expressed as a percentage of the reference compound” value ([4]; peptide at 0.2 μM) was 97%. The “Activity of a4b2 with peptide (percentage of the reference compound)” value ([4]; peptide at 20 μM) was 88%, the “Activity of Cav2.2 with peptide, expressed as a percentage of the reference compound” value ([5]; peptide at 0.2 μM) was 120% and the “Activity of Cav2.2 with peptide (percentage of the reference compound)” value ([5]; peptide at 20 μM) was 102%. For the same substance, the “Activity of Cav2.1 with peptide, expressed as a percentage of the reference compound” value ([6]; peptide at 0.2 μM) was 92%, the “Activity of Cav2.1 with peptide (percentage of the reference compound)” value ([6]; peptide at 20 μM) was 121% and the “Activity of Kv2.1 with peptide, expressed as a percentage of the reference compound” value ([7]; peptide at 0.2 μM) was 91%. The “Activity of Kv2.1 with peptide (percentage of the reference compound)” value ([7]; peptide at 20 μM) was 81%, the “Activity of TRPV1 with peptide, expressed as a percentage of the reference compound” value ([8]; peptide at 0.2 μM) was 131% and the “Activity of TRPV1 with peptide (percentage of the reference compound)” value ([8]; peptide at 20 μM) was 102%. For the same substance, the “Activity of NR2B with peptide, expressed as a percentage of the reference compound” value ([9]; peptide at 0.2 μM) was 102%, the “Activity of NR2B with peptide (percentage of the reference compound)” value ([9]; peptide at 20 μM) was 92% and the “Activity of Kir2.1 with peptide, expressed as a percentage of the reference compound” value ([10]; peptide at 0.2 μM) was 104%. For the same substance, the “Activity of Kir2.1 with peptide (percentage of the reference compound)” value ([10]; peptide at 20 μM) was 90%, the “Activity of Kv1.1 with peptide, expressed as a percentage of the reference compound” value ([11]; peptide at 0.2 μM) was 65% and the “Activity of Kv1.1 with peptide (percentage of the reference compound)” value ([11]; peptide at 20 μM) was 69%. The “Activity of Kv1.3 with peptide, expressed as a percentage of the reference compound” value ([12]; peptide at 0.2 μM) was 94%, the “Activity of Kv1.3 with peptide (percentage of the reference compound)” value ([12]; peptide at 20 μM) was 73% and the “Activity of Kv1.2 with peptide, expressed as a percentage of the reference compound” value ([13]; peptide at 0.2 μM) was 74%. The “Activity of Kv1.2 with peptide (percentage of the reference compound)” value ([13]; peptide at 20 μM) was 83%, the “Activity of TRPA1 with peptide, expressed as a percentage of the reference compound” value ([14]; peptide at 0.2 μM) was 132% and the “Activity of TRPA1 with peptide (percentage of the reference compound)” value ([14]; peptide at 20 μM) was 107%. For the same substance, the “Activity of NR2A with peptide, expressed as a percentage of the reference compound” value ([15]; peptide at 0.2 μM) was 102%, the “Activity of NR2A with peptide (percentage of the reference compound)” value ([15]; peptide at 20 μM) was 100% and the “Activity of 5HT3a with peptide (percentage of the reference compound)” value [16] was 84%. The “Activity of 5HT3a with peptide, expressed as a percentage of the reference compound” value [16] was 85%, the “Activity of Nav1.7 with peptide, expressed as a percentage of the reference compound” value [17, 21] was 84% and the “Activity of Nav1.7 with peptide, expressed as a percentage of the reference compound” value [17, 22] was 97%. For the same substance, the “Activity of Nav1.7 with peptide (percentage of the reference compound)” value [17, 21] was 80%, the “Activity of Nav1.7 with peptide (percentage of the reference compound)” value [17, 22] was 83% and the “Activity of a3b4 with peptide, expressed as a percentage of the reference compound” value ([18]; peptide at 0.2 μM) was 101%. For the same substance, the “Activity of a3b4 with peptide (percentage of the reference compound)” value ([18]; peptide at 20 μM) was 87%.
